For this assay, the target named is mouse FGFR4/β-klotho complex co-expressed in rat L6 myoblast cells (mouse, UniProt Q03142 17-799; Q99N32 1-1043). Kind of assay: cell-based or functional assay.
Sequence of mouse FGFR4/β-klotho complex co-expressed in rat L6 myoblast cells (Q03142 17-799, chain 1 of 2): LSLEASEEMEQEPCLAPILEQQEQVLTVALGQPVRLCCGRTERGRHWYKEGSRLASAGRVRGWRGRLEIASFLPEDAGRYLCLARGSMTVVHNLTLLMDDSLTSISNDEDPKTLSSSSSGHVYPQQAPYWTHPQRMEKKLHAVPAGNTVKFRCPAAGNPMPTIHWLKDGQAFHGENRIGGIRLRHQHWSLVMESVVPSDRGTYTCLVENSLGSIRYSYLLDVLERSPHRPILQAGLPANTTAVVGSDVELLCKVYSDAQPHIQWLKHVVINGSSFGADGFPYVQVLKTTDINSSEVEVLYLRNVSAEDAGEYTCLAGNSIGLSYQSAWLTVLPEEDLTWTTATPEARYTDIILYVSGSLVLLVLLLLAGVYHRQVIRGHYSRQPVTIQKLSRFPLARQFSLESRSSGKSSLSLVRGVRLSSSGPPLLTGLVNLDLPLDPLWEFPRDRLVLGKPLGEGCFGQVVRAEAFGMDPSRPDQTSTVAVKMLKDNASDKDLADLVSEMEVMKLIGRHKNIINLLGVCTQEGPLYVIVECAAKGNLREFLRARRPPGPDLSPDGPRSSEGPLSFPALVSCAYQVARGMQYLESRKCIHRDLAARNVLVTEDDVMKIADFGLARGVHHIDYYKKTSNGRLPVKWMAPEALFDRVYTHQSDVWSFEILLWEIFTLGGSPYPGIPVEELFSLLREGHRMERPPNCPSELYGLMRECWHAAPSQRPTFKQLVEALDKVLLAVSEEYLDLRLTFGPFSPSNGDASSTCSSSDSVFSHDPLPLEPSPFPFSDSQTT
Sequence of mouse FGFR4/β-klotho complex co-expressed in rat L6 myoblast cells (Q99N32 whole entry, chain 2 of 2): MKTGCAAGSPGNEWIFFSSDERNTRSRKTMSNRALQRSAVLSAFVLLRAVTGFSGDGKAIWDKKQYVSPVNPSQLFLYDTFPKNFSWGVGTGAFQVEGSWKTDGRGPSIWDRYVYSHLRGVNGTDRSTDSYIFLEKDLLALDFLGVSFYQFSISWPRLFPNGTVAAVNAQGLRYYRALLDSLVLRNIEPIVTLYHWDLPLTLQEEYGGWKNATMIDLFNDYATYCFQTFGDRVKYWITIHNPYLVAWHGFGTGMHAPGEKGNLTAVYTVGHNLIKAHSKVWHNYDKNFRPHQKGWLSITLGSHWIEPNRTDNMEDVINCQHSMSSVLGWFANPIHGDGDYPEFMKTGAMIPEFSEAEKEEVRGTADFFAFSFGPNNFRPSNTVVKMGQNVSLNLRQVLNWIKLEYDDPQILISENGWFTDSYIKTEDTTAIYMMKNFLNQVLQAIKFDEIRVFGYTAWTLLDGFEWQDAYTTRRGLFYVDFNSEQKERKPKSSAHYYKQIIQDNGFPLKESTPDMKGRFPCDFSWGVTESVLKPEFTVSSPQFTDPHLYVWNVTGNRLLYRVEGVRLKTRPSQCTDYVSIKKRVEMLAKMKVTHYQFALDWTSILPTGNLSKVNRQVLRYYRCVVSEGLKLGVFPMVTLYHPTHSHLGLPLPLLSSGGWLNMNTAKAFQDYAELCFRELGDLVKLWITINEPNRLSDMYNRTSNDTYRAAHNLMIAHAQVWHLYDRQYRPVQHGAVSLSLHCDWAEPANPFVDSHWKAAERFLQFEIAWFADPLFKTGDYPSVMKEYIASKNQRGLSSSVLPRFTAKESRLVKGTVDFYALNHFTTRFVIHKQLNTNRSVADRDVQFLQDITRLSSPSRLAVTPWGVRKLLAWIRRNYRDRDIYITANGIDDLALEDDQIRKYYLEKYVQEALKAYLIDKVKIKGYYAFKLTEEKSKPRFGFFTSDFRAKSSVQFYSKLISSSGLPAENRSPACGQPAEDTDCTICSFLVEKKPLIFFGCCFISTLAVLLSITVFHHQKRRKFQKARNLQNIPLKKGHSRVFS

B1: FGF19 variant M70 (ligand)
chain: MRDSSPLVHYGWGDPIRLRHLYTSGPHGLSSCFLRIRADGVVDCARGQSAHSLLEIKAVALRTVAIKGVHSVRYLCMGADGKMQGLLQYSEEDCAFEEEIRPDGYNVYRSEKHRLPVSLSSAKQRQLYKNRGFLPLSHFLPMLPMVPEEPEDLRGHLESDMFSSPLETDSMDPFGLVTGLEAVRSPSFEK
In the case of B1, the “EC50 (pM), ELK luciferase assay in L6 cells” value amounted to 38.3 pM and the “Emax (fold potentiation), ELK luciferase assay in L6 cells” value stood at 1.85 fold potentiation.

These data come from patent US20190307847A1 (NGM BIOPHARMACEUTICALS, published 2019).
